In experiment [1] the target is monkey (crab-eating macaque) CDH17 fused to moxGFP, overexpressed on HEK293T cells (monkey (crab-eating macaque)). In words: KinExA, cell-based, HEK293T monkey CDH17mGFP mass population. (In general: Kinetic exclusion samples the free partner from a solution-phase mixture.)
For experiment [2] the target is unchanged. In words: flow cytometry on HEK293T monkey CDH17mGFP mass population, 20 µg/ml. Background: Flow cytometry measures light scatter and fluorescence of single cells or particles in a stream.
The target is the same in experiment [3]. In words: KinExA, cell-based, HEK293T overexpressing monkey CDH17 fusion (FIG. 16).
Experiment [4] shares this target. As to the kind of experiment: flow cytometry (BD C6), 1 µg antibody on HEK293T Macaque CDH17 moxGFP cells, labelled anti-human IgG Fc secondary antibody; same antibody on HEK293T Parental: 817.99.
For experiment [5] the target is unchanged. In words: flow cytometry (BD C6), 1 µg antibody on HEK293T Macaque CDH17 moxGFP cells, labelled anti-human IgG Fc secondary antibody; same antibody on HEK293T Parental: 593.57.
The target is the same in experiment [6]. As to the kind of experiment: flow cytometry (BD C6), 1 µg antibody on HEK293T Macaque CDH17 moxGFP cells, labelled anti-human IgG Fc secondary antibody; same antibody on HEK293T Parental: 600.46.

B1: humanized anti-CDH17 antibody 07-0653-h43 (antibody, human IgG1, V domains shown)
VH: QVQLVQSGAEVKKPGASVKVSCKASGYTFTDYYMNWVRQAPGQGLEWMGVIYPYSGGIGYAQKFQGRVTMTVDKSTSTAYMELSSLRSEDTAVYYCARGRGDYFGLFDFWGQGTTVTVSS
VL: DIQLTQSPSSLSASVGDRVTITCRATSSLSYIHWYQQKPGKAPKPLIYEISKLASGVPSRFSGSGSGTDYTLTISSLQPEDFATYYCQQWNYPFTFGQGTKLEIK
In the case of B1, the Kd in experiment [1] is 0.946 nM; in experiment [3], less than 1 nM. In experiment [2], this molecule returned a Cross Reactivity by Flow of 29800. The FL4-H in experiment [4] turned out to be 182000.

B2: humanized anti-CDH17 antibody 07-0646-h7 (antibody, human IgG1, V domains shown)
VH: QVQLVQSGAEVKKPGASVKMSCKASGYTFTSYNMHWVRQAPGQGLEWIGAIYPGNGDTSYAQKFQGRATLTVDTSTSTAYMELSSLRSEDTAVYYCARGRGRYFEYWGQGTTLTVSS
VL: DIQLTQSPSSLSASVGDRVTMTCRASSSVSSSYLHWYQQKPGKAPKLLIYSTSNLASGVPSRFSGSGSGTDYTLTISSVQPEDFATYYCQQYDSSPSTFGQGTKLEIK
Consider B2, for which the Kd in experiment [1] is 0.657 nM; in experiment [3], less than 1 nM. Further, the Cross Reactivity by Flow in experiment [2] is 16900. In experiment [5], the FL4-H amounted to 145000.

B3: humanized anti-CDH17 antibody 07-0663-h7 (antibody, human IgG1, kappa, V domains shown)
VH: QVQLVQSGAEVKKPGSSVKISCKVSGYTFTDHTIHWMRQAPGQGLEWIGYIFPRDDIVVYAQKFQGRATLTADKSTSTAYMELSSLRSEDTAVYYCARPPYYYSRNFYFDYWGQGTTLTVSS
VL: DIQMTQSPSSLSASVGDRVTITCRVSSIISSSKLHWYQQKPGKAPKPLIYGTSTLASGVPSRFSGSGSGTDYTLTISSLQPEDFATYYCQQWSNYPFTFGQGTKLEIKR
Take B3: the figures for the Kd in experiment [1] and in experiment [3] were 0.336 nM and less than 1 nM, respectively. The molecule further gave a Cross Reactivity by Flow in experiment [2] of 41300. For the same molecule, the FL4-H in experiment [6] turned out to be 159000.

As usually defined, the Kd is the free concentration of one partner at which half of the binding sites on the other are occupied at equilibrium, for simple one-to-one binding.

Values taken from patent publication US20250051437A1.
